The term stoichiometry N denotes the number of molecules, sites or subunits per partner or assembly.

Here are results for 2 molecules from doi:10.1101/2020.06.02.131169 (bioRxiv, 2020).

Series [1] has as its target bifunctional TreS-Mak of Estrella lausannensis (trehalose synthase-maltokinase) (Estrella lausannensis). The experiment in a line: SEC. A general note: Size exclusion chromatography separates by hydrodynamic size, large species first.
Series [2] concerns the molecule itself. The experiment in a line: SEC.

As for “bifunctional TreS-Mak of Estrella lausannensis (trehalose synthase-maltokinase) (enzyme)”, the stoichiometry N in series [1] came to 2.

B1: GlgE of Estrella lausannensis (maltosyl-1-phosphate transferase) (enzyme, UniProt A0A0H5DRC6 1-675, looked up)
chain: MSVSAAEKRQLLTQVKASGSMYTNTLHSIVIQNISPKPEPFGPAKRVLLEQVEVEADIFTDPHTKLEADLIVKAPGLRKTTRIPFHPLVNDRFKAVFVPDTPGTYSFFVEAWVNPAALWQEDLRKKQEARLDLTVDLQIGAALLVEVADLLPPEESVKLLQIAKKLREQKGAEAVAFDPEIARLGRLARPKSRQGVCSQEQEVFVTRKKALFSTWYELFPRSCSGTMRHGTFNDVVAKLPRISRMGFDVLYLPPIHPIGKTKRKGKNNALTALPDDPGSPWAVGSHEGGHDAIQRELGTLADFERLVKEAESLGIEIALDIALQCSPDHPYLKEHPEWFLKRPDGTYQYAENPPKKYEDIIPFHFTEDNKDTLFREILRIFLFWMKRGVRIFRVDNPHTKPFALWEYVIGEVRKVDSGVIFLAEAFTRPKIMHHLARIGFDQSYTYFTWRNTKWELTEYLTELTKTEARNYLRPNFFVNTPDILPESLQWGGRAAFLTRLILAATLSSSYGIYGPAFEQMLSEAVPGKEDYIDSEKYEIKPWDFEKKGTISETIEIVNRIRKENPALQATGNLEFYATDNDYLLAYGKQGPQGESLLIVVNLDHYHTQSGYVTLPLMHLGIQEKEPYLVDDLLSGERYIWEGERNYIQLSPHLVPAHIFRIRPKMLRENNFDYFI
With B1, in series [2], the “stoichiometry N” value turned out to be 2.
